Assay: yeast display, Sf9 membrane polyspecificity reagent, FACS + sequencing; frameworks hold sequencing errors
Method in brief: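 Using colony PCR, genes from sorted yeast display clones were amplified, then sequenced on MiSeq at 2 × 250 and filtered by CDR length. The clones had been stained with 10% biotinylated, detergent-solubilized Sf9 membrane reagent for 1 hour at 4 °C and sorted by FACS into low and high (top ~1%) gates on anti-HA and streptavidin fluorescence. Polyreactivity labels come from the gate of origin.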

Sequence	polyreactivity (PSR sort gate)
QVQLVESGGGLVKAGGSLRLSCAASGFIFGYNAMGWDRQAPGKERELVAVITDSSDSTYYADSVKGRFTISRDNAMNTVYLQMNSLKPEDTAVYYCDTDYGYAGDYWGQGTQVTVSS	low polyreactivity
QVQLVESGGGLVQAGGSLRLSCAASGRIFAYYAMGWYRQAPGKERELVAAISRSGVSTYYADSVKGRFTISRDNAKNTVYLQMNSLKPEDTAVYYCAASWWYEIFDYWGQGTQVTVSS	low polyreactivity
QVQLVESGGGEVQAGGSLRLICAASGRTFQLNAMGWYRQAPGKERELVAAISTRGGSTYYADSVKGRFTISRDNAKNTVYLQMISLKPEDTAVYYCAARVWTANYEMDLWGQGTQVTVSS	high polyreactivity
QVQLVESGGGLVQAGGSLRLICAASGRTFVANTMGWYRQAPGKERELVATITWNGGSTYYADSVKGRFTISRDNAKNTVYLQMNSLKPEDTAVYYCAKEAYFRRYYVYRYGYWGQGTQVTVSS	high polyreactivity
QVQLVESGGGLVQAGGSLRLSCAASGFIFRPYVMGWYRQAPGKERELVAAISRSGSSTYYADSVKGRFTISRDNAKNTVYLQMNSLQPEDTAVYYCARRTSQEFDYWGQGTQVTVSS	high polyreactivity
QVQLVESGGGLVQAGGRLRLSCAASGLTFPRNAMGWYRQAPGKERELVAAISWRGSSTYYADSVKGRFTISRDNAKNTVFLQMNSLQPEDTAVYYCAASYAGGQHDYWGQGTQVTVSS	high polyreactivity
QVQRVESGGGLVQAGGSLRLSCAAAGLTFYGYAMGWYRQAPGKERELVAAITRSGGSTYYADSVKGRFTISRDNAKNTVYLQMNSLKPEDTAVYYCAAEEEYLYQSNRLHPYDYWGQGTQVTVSS	low polyreactivity
QVQLVESGGGLVQAGGSLRLSCAASVYGMGWYRQAPGKERELVAAISNGGTTYYADSVKGRFTISRDNAKNTVYLQMNSLKPEDTAVYYCARSYRSDGSRFGYWGQGTQVTVSS	low polyreactivity
QVQLVESGGGLVQAGGSLRLSCAASGRIFRAYAMGWYRQAPRKERELVAAISYRGGSTYYADSVKGRFTISRDNAKNTVYLQMNSLKPEDTAVYDCAADSDRSVWIYGYWGQGTQVTVSS	low polyreactivity
QVQLVESGGGLVQAGGSLRLSCAASRSIFDLYAMGWYRQAPGKEREFVAAITWRGSSTYYADSVKGRFTISRDNAKNNVYLQMNSLKPEDTAVYYCAATHNQVVARYAFIYWGQGTQVTVSS	high polyreactivity
QVQLVESGGGLVQAGGSLRLSCAASGLTFNKNAMGWYRQAPGKEREFVAAISRRGGSTRYADSVKGRFTISRDNAKNTVYLQMHSLKPEDTAVYYCAKTAVDYYYSYDYWGQGTQVTVSS	high polyreactivity
QVQLVESGGGLVQAGGSLRLSCAASGSTFAGNGMGWYRQAPGKERELVAGIDVTGGSTYYADSVKGRFTISRDNAKNTVYLQMNSLKPEDTAVYYCNARYVYHSSFAGFDYWGQGTQVTVSS	low polyreactivity
QVQLVESGGGLVQAGGSLRLSCAASGFIFGLNAMGWYRQPPGKERELVAVISGRGRTYYADSVKGRFTISRDNAKNTVYLQMNSLKPEDTAVYYCNAVSSYGYDYWGQGTQVTVSS	high polyreactivity
QVQLVESGGGLVQAGGSLRLSCAASGSTLRGYALGWYRQAPGKERELVAAISKNGGSTYYADSVKGRFTISRDNAKNTVYLQMNSLNPEDTAVYYCAAYKAVPHYYYWGQGTQVTVSS	high polyreactivity
QVQLVESGGGLVQAGGSLRLSCAASGSIFDYNAMGWYRQAPGKERELVAGITFIGGSTYYADSVKGRFTISRDNAKNTVYLQMNSLKPEDTAVYYCNADVAPGIFYGYESWGQGTQVSVSS	low polyreactivity
QVQLVESWGGLVQAGGSLRLSCAASGRIFSYYAMGWYRQAPGKERELVAAISRTGGTTYYADSVKGRFTISRDNAKNTVYLQMNSLKPEDTAVYYCNAVKAPYLRYDYWGQGTQVTVSS	high polyreactivity
QVQLVESGGGLVQAGGSLRLSCAASGFTCVRYAMGWYRPAPGKEREFVASISARGGNTFYADSVKGRFTISRDHAKNTVYLQMNSLKPEDTAVYYCAKRGPYGTGYGYWGQGTQLTVSS	high polyreactivity
QVQLQESGGGLVQAGGSLLSCAASGTISYYREMGWYRQAPGKERELVAGIGVGTITYYADSVKGRFTISRDNAKNTVYLHMNSLKPEDTAVYYCAAHIDGNDSHAYWGQGTQVTVSS	low polyreactivity
QVQLEESGGGLVQAGGSLRLSCAASGFIYVKYAMGWYRQAPGKERELVAAITNGGSTYYADSVKGRFTISRDNAKYTVYLQMNSLKPEDTAVYYCAAQYHDWWRRLLYRSFRPFDYWGQGTQVTVSS	low polyreactivity
QVQLVESGGGLVQAGGSLRLSCAASGFTFHNYAMGWYRQAPGKERELVAVIRWRGGSTYYADSVKGRFTISRDNAKNTVYLQMNSLKPEDTAVYYCNALFRYSRDYWGQGTQVTVSS	high polyreactivity
QVQLVESGGGLVQAGGSLRLSCAASGITLKYYAIGWYIQAPGKERELVAAITRSGVGTYYADSVKGRFTISRDNAKNTVYLQMNSLKPEDTAVYYCAAASYQSRYWNYYWGQGTQVTVSS	high polyreactivity
QVQLVESGGGLVQAGGSLRISCAASGFTFKAYAMGWYRLAPGKERELVAAITKSGGRTFYADSVKGRFTISRDNAKNTVYLQMNSLKPEDTAVYYCAASYTVYYWGQGTQVTVSS	high polyreactivity

Sequence	polyreactivity (PSR sort gate)
QVQLVDSGGGLVQAGGTLSLSCAASGRTFWWYARGWSRQAPGTERELVDAITNFGSTNYADSVKGRFSISRDNAKNTVYLQKNSLKPEDTAVYYCAALTRCWYGGFYQYYYLGQGTQVTVSS	high polyreactivity
QVQLVESGGGLVQAGGSLRLSCAASGSISYKYAMGWYRQAPGKERELVAAISSSGGRTYYADSVKGRFTISRDNAKNTVYLQMNSLKPEDTAVYYCNADVLFYTYYTRGRFDFDYWGQGTQVTVSS	low polyreactivity
QVQVLESGGGLVQAGGSLRLSCAASGRTFYWNAMGWYRQAPGKERELDAVISQSGGSTYYADSVKGRFTISRDNAKNTVYLQMNSLQPEDTAVYYCNKATRHHFYYWGQGTQVTVSS	high polyreactivity
QVQLVESGVGLVQAGGSLRLICAASGSIFWSNAMGWYTQAPGKERELVAAISSGGSTYADSVKGRFTISRDNAKNTVYLQMNSLKPEDTAVYYCNADVLYGDSYRGGYWGQGTQVTVSS	low polyreactivity
QVQLVESGGGLVQAGGSLRLSCAASGFTFSAYAMGWYRQAPGKERELVAAITLRGGSTYYADSVKGRFTISRDNAKNTVYLQMNSLKPEDTAVYYCNADRWTRTEEEVDYWGQGTQVTVSS	low polyreactivity
QVQLVVSGGGLVQAGGSLRLSCAASGFTFIVNAMGWYRQAPGKERELVAAISWNGGSTYYADSVKGRFTISRDNAKNTVYLQMNSLKPEATAVYYCAAVRYNSRGSTTPSEMYYWGQGTQVTVSS	low polyreactivity
QVQLVESGGGLVQAGGSLRLSCAASGLTFWYYAMGWYRQAPGKERELVAAITSVGSTYYADSVKGRFTISRDNAKNTVYLQMNSLKPEDTAVYYCAAGVPPLYFRRGGDYWGQGTQGTVSS	high polyreactivity
QVQLVESGGGLVQAGGSLRLSCAASGSIFDSKAMGWYRQAPGKERELVAAISQGGDDTYYADSVKGRFTISRDNAKNTVYLQMNSLKPEDTAVYYCAAEFFYITGAYDYWGQGTQVTVSS	low polyreactivity
QVQLVESGGGLVQAGGSLRLSCAASGLIFSTNDMGWYRQAPGKERELVAAITSDVSTYYADSVKGRFTISRDNAKNTVYLQMNSLKPEDTAVYYCAKDDSGYINWRYDYWGQGTQVTVSS	low polyreactivity
QVQLVESGGGLVQAGGSLRLSCAASGFTFVYYAMGWYRQAPGKERELVAAIRSGGSTNYADSVKGRFTISRDNAKNTVYLQMNSLKPEDTAVYYCAAAYWKGRLVRYYYWGQGTQVTVSS	high polyreactivity
QVQLVESGGGLVQAGGSLRLSCPASGFTFTIYAMGWYRQAPGKERELLATISGRAGRTYYADSVKGRFTISRDNAKNTVYLQMNSLKPEDTAVYDCAARVWYQGYKSMGYWGQGTQVTVSS	high polyreactivity
QVQLVESGVGLVQAGGILSLSCAASGLTFGAYTMGWYRQAPGKERELVAAITSSGGRTYYADSVKGRFTISRDNAKITFYLQMNSLKPEDTAVFYCNARIFRSPNPYDYWGQGTQVSVSS	high polyreactivity
QVQLVESGRGLVQAGVSLRLSCAASGFIFKGYAMGWYRQATGKERELVAAITWSGRTYYADSVKGRFTISRDNAKNTVYLKMNSLKPEDTAVFYCAVDRGRGSTYKYDYWGQGTQVNVSS	low polyreactivity
QVQLVDSGGGLVQAGGSLRLSCAASGSIFHVNAMGWYRQAPGKERELVAAIRSDASTNYADSVKGRFTISRDNAKNTVYLQMNILKPEDTAVYYCNTAQLVSDEFDYSGQGTQVTVSS	low polyreactivity
QVQLVESGGGLVQAGGSLRLSCAASGGIFFINAMGWYRQAPGKERELVAAISISDGSTYYADSVKGRFTISRDNAKNTVYLQMNSLKPEDTAVYYCAAEGFDWDSPEMEYWGQGTQVTGSS	low polyreactivity
QVQLVESGGGLVQAGGSLRLSCAASGFIFVIYGMGWYRQAPGKERELVAAISRGGSTYADSVKGRFTISRDNAKNTVYLQMNSLKPEDTAVYYCNARLYKRGGFGYYYWGQGTQVTVSS	high polyreactivity
QVQLVESGGGLVQAGGSLRLSCAASGLTFGYYTMGWYRQAPGKERELVAAITYSGGSTYYADSVKGRFTISRDNAKNSVYLQMYSLKPEDTAVYYCAADGPVYTTYEYWGQGTQVTVSS	low polyreactivity
QVQLVESGVGLVQAGGSLRLSCAASGSTFQPYSMGRYRQAPGKERELVAAIRSLAGSTYYADSVKGRFTISRDNAKNTVYLQMNSLKPEDTAVYYCAAGYNPYVGLGWYPIYDFWGQGTQVTVSS	low polyreactivity
QVQLVESGGGLVQAGGSLRLSCADSGYTFYFYAMGWYRQAPGKESELVAAITGGGTTSYADSVKGRFTISRDNAKNTVYLEMNSLKPEDTAFYYCAAYAYGVWQYQYGGNYWGQGTQVTVSS	low polyreactivity
QVQLVESGGGLVQAGGSLRLSCAASGRTFPTNMGWYRQAPGKERELVATITGGGGSTIYADSVKGRFTISRDNAKNTVYLQMNSLKPEDTAVYYCAKTLSPEGVPYDYWGQGTQVTVSS	low polyreactivity
QVQLVESGGGLVHAGGSIRLSCAASGSIFRLYAMGWYRQAPGKERELVATISQRGGRTYYADSVKGRFTISRDNAKNTVYLQMNILKPEVTAVYYCNADHYYPWLDYWGLGTQVTVSS	high polyreactivity

Source: the nanobody polyreactivity screen of Harvey et al. (2022)
